# Patent US10030233B2, “Modified P450 reductase with N-terminal deletions and endoplasmic reticulum retention tag” (DE MONTFORT UNIVERSITY, priority 2013, dated 2018)
# T1: CYP1A2 (Homo sapiens, UniProt P05177)
# T1 construct: A 1563 bp BamHI-XhoI fragment containing the human CYP1A2 gene; made in house; host or cells: Saccharomyces cerevisiae W303B, microsomes
# T1 sequence (P05177 1-516): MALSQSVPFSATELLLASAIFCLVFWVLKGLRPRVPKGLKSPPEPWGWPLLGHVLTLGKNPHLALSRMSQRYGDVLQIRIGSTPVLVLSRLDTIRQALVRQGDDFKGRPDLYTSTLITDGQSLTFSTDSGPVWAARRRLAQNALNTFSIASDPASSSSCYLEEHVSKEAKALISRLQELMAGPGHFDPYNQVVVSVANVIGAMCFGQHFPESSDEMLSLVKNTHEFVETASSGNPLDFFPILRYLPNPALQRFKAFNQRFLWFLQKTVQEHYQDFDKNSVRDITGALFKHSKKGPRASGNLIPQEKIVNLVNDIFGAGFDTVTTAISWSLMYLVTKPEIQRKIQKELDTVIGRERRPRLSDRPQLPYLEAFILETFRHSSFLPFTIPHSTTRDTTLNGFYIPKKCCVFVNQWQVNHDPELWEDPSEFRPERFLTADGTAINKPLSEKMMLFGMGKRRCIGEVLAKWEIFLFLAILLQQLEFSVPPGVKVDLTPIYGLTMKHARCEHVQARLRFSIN
# Tests used:
# Type in all cases: biochemical
# [1] = MTT-based cytochrome P450 reductase assay on yeast microsomes; conditions: relative to hRD = 1; 100 μg yeast microsomes, A610
# Excerpt: The enzyme NADPH-cytochrome P450 reductase mediates the transfer of electrons from NADPH to cytochrome P450, other microsomal proteins and cytochrome c. It also catalyses the reduction of many drugs and other compounds such as potassium ferricyanide, 2,6-dichloroindopheonl, 1,1-diphenyl-2-picrylhydrazyl (DPPH), and mitomycin c. Tetrazolium salts are used extensively in cell proliferation and cytotoxicity assays, enzyme assays, histochemical procedures and bacteriological screening. […] The compound 3-(4,5-dimethylthiazol-2-yl)-2,5-diphenyltetrazolium bromide (MTT) is a monotetrazolium salt. The reduction of MTT is one of the most frequently used methods for measuring cell proliferation and cytotoxicity. Reduction of MTT by P450 reductase has been assessed as a method for monitoring yeast produced recombinant P450 reductase activity and the protocol was developed on the procedure published by Yim S-K, et al (Yim S-K., Y. C.-H. Ahn T., Hung H-C and Pan J-G. A continuous Spectrophotometric assay for NADPH-cytochrome P450 reductase activity using 3-(4,5 Dimethylthiazol-2-yl)-2,5-diphenyltetrazolium Bromide. Journal of Biology and Molecular Biology 38: 366-369, 2005). The principal advantage of this substance is that the reduction of MTT can be assayed directly in the reaction medium by a continuous spectrophotometirc method. The electrons released from NADPH by P450 reductase are transferred to MTT, and then the amounts of reduced MTT is assessed spectrophotometrically by measuring the increase in A610 values that is due to the formation of blue formazan. The extinction coefficient of MTT is 11.3 mM^−1 cm^−1. This method offers the advantages of short analysis time with the use of a relatively cheap commercial substrate. The classical assay uses recombinant cytochrome c as a substrate. […]
# Disposable cuvettes were used for this experiment. […] The cuvette was quickly placed into the spectrophotometer together with the blank cuvette and its contents (that contained all components as in the other test cuvette but not the microsomes or cell supernatant) and the increase in the values at 610 nm was measured for a time period of 400 seconds. The electrons released from NADPH by recombinant P450 reductase enzyme were transferred to MTT, and the ability to reduce MTT was assessed spectrophotometrically by measuring the increase in A610 values as a result of the formation of blue formazan. The rate of MTT reduction was calculated from the change in A610 values using an extinction coefficient of 11.3 mM^−1 cm^−1 and the formula, ΔA610/min/11.3*0.1 mg/ml=μmole reduced MTT/min/mg of protein.
# CYP2D6 = molecular target: T2, CYP2D6 (Homo sapiens, UniProt P10635, V374M)
# T2 construct: A 1506 bp BamHI-XbaI fragment containing the human CYP2D6 gene; made in house; host or cells: Saccharomyces cerevisiae W303B, microsomes
# CYP1A2 = molecular target: T1, CYP1A2
# T2 sequence (P10635 whole entry V374M, the tested form may be a part): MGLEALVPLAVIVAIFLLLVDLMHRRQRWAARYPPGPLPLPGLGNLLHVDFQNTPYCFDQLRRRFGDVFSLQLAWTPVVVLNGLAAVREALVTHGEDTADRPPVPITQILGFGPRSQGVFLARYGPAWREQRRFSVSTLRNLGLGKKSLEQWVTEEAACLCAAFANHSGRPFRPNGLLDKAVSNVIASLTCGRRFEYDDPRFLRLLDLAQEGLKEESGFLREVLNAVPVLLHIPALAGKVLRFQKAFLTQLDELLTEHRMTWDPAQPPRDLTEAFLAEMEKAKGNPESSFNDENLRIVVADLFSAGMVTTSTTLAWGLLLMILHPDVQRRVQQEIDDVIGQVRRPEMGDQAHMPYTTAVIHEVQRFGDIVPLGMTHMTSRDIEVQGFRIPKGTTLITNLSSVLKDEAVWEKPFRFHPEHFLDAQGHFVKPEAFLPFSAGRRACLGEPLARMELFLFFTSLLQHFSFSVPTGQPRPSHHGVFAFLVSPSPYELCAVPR
molecule,measurement,setting,value
"ΔN1hRD-HDEL: human P450 reductase lacking N-terminal 24 amino acids, with C-terminal yeast ER retention signal HDEL (protein, delN1hRD-HDEL, human P450 reductase lacking N-terminal 24 amino acids, with C-terminal yeast ER retention signal HDEL) MTDMILFSLIVGLLTYWFLFRKKKEEVPEFTKIQTLTSSVRESSFVEKMKKTGRNIIVFYGSQTGTAEEFANRLSKDAHRYGMRGMSADPEEYDLADLSSLPEIDNALVVFCMATYGEGDPTDNAQDFYDWLQETDVDLSGVKFAVFGLGNKTYEHFNAMGKYVDKRLEQLGAQRIFELGLGDDDGNLEEDFITWREQFWPAVCEHFGVEATGEESSIRQYELVVHTDIDAAKVYMGEMGRLKSYENQKPPFDAKNPFLAAVTTNRKLNQGTERHLMHLELDISDSKIRYESGDHVAVYPANDSALVNQLGKILGADLDVVMSLNNLDEESNKKHPFPCPTSYRTALTYYLDITNPPRTNVLYELAQYASEPSEQELLRKMASSSGEGKELYLSWVVEARRHILAILQDCPSLRPPIDHLCELLPRLQARYYSIASSSKVHPNSVHICAVVVEYETKAGRINKGVATNWLRAKEPAGENGGRALVPMFVRKSQFRLPFKATTPVIMVGPGTGVAPFIGFIQERAWLRQQGKEVGETLLYYGCRRSDEDYLYREELAQFHRDGALTQLNVAFSREQSHKVYVQHLLKQDREHLWKLIEGGAHIYVCGDARNMARDVQNTFYDIVAELGAMEHAQAVDYIKKLMTKGRYSLDVWSHDEL",μM of reduced MTT/min/mg of protein (Relative Rates),[1],3 ± 10%
same,pmoles of CYP2D6/mg of total protein (Relative Amounts),CYP2D6,6 ± 10%
same,pmoles of CYP1A2/mg of total protein (Relative Amounts),CYP1A2,6 ± 10%
"ΔN1hRD-M: human P450 reductase lacking N-terminal 24 amino acids, with C-terminal 12-amino acid c-myc tag; described in WO 2007/129050; gene SEQ ID NO: 5 (protein, delN1hRD-M) MTDMILFSLIVGLLTYWFLFRKKKEEVPEFTKIQTLTSSVRESSFVEKMKKTGRNIIVFYGSQTGTAEEFANRLSKDAHRYGMRGMSADPEEYDLADLSSLPEIDNALVVFCMATYGEGDPTDNAQDFYDWLQETDVDLSGVKFAVFGLGNKTYEHFNAMGKYVDKRLEQLGAQRIFELGLGDDDGNLEEDFITWREQFWPAVCEHFGVEATGEESSIRQYELVVHTDIDAAKVYMGEMGRLKSYENQKPPFDAKNPFLAAVTTNRKLNQGTERHLMHLELDISDSKIRYESGDHVAVYPANDSALVNQLGKILGADLDVVMSLNNLDEESNKKHPFPCPTSYRTALTYYLDITNPPRTNVLYELAQYASEPSEQELLRKMASSSGEGKELYLSWVVEARRHILAILQDCPSLRPPIDHLCELLPRLQARYYSIASSSKVHPNSVHICAVVVEYETKAGRINKGVATNWLRAKEPAGENGGRALVPMFVRKSQFRLPFKATTPVIMVGPGTGVAPFIGFIQERAWLRQQGKEVGETLLYYGCRRSDEDYLYREELAQFHRDGALTQLNVAFSREQSHKVYVQHLLKQDREHLWKLIEGGAHIYVCGDARNMARDVQNTFYDIVAELGAMEHAQAVDYIKKLMTKGRYSLDVWSSSEQKLISEEDLNGSRL",μM of reduced MTT/min/mg of protein (Relative Rates),[1],2.5 ± 10%
same,pmoles of CYP2D6/mg of total protein (Relative Amounts),CYP2D6,4 ± 10%
same,pmoles of CYP1A2/mg of total protein (Relative Amounts),CYP1A2,4 ± 10%
"ΔN2hRD-HDEL: human P450 reductase lacking the 54-amino acid membrane anchoring region, with C-terminal yeast ER retention signal HDEL (protein, delN2hRD-HDEL, human P450 reductase lacking the 54-amino acid membrane anchoring region, with C-terminal yeast ER retention signal HDEL) MTKIQTLTSSVRESSFVEKMKKTGRNIIVFYGSQTGTAEEFANRLSKDAHRYGMRGMSADPEEYDLADLSSLPEIDNALVVFCMATYGEGDPTDNAQDFYDWLQETDVDLSGVKFAVFGLGNKTYEHFNAMGKYVDKRLEQLGAQRIFELGLGDDDGNLEEDFITWREQFWPAVCEHFGVEATGEESSIRQYELVVHTDIDAAKVYMGEMGRLKSYENQKPPFDAKNPFLAAVTTNRKLNQGTERHLMHLELDISDSKIRYESGDHVAVYPANDSALVNQLGKILGADLDVVMSLNNLDEESNKKHPFPCPTSYRTALTYYLDITNPPRTNVLYELAQYASEPSEQELLRKMASSSGEGKELYLSWVVEARRHILAILQDCPSLRPPIDHLCELLPRLQARYYSIASSSKVHPNSVHICAVVVEYETKAGRINKGVATNWLRAKEPAGENGGRALVPMFVRKSQFRLPFKATTPVIMVGPGTGVAPFIGFIQERAWLRQQGKEVGETLLYYGCRRSDEDYLYREELAQFHRDGALTQLNVAFSREQSHKVYVQHLLKQDREHLWKLIEGGAHIYVCGDARNMARDVQNTFYDIVAELGAMEHAQAVDYIKKLMTKGRYSLDVWSHDEL",μM of reduced MTT/min/mg of protein (Relative Rates),[1],3.5 ± 10%
same,pmoles of CYP2D6/mg of total protein (Relative Amounts),CYP2D6,6 ± 10%
same,pmoles of CYP1A2/mg of total protein (Relative Amounts),CYP1A2,6 ± 10%
"hRD: wild-type human P450 reductase, full length, control (protein, listed as Homo sapiens) MGDSHVDTSSTVSEAVAEEVSLFSMTDMILFSLIVGLLTYWFLFRKKKEEVPEFTKIQTLTSSVRESSFVEKMKKTGRNIIVFYGSQTGTAEEFANRLSKDAHRYGMRGMSADPEEYDLADLSSLPEIDNALVVFCMATYGEGDPTDNAQDFYDWLQETDVDLSGVKFAVFGLGNKTYEHFNAMGKYVDKRLEQLGAQRIFELGLGDDDGNLEEDFITWREQFWPAVCEHFGVEATGEESSIRQYELVVHTDIDAAKVYMGEMGRLKSYENQKPPFDAKNPFLAAVTTNRKLNQGTERHLMHLELDISDSKIRYESGDHVAVYPANDSALVNQLGKILGADLDVVMSLNNLDEESNKKHPFPCPTSYRTALTYYLDITNPPRTNVLYELAQYASEPSEQELLRKMASSSGEGKELYLSWVVEARRHILAILQDCPSLRPPIDHLCELLPRLQARYYSIASSSKVHPNSVHICAVVVEYETKAGRINKGVATNWLRAKEPAGENGGRALVPMFVRKSQFRLPFKATTPVIMVGPGTGVAPFIGFIQERAWLRQQGKEVGETLLYYGCRRSDEDYLYREELAQFHRDGALTQLNVAFSREQSHKVYVQHLLKQDREHLWKLIEGGAHIYVCGDARNMARDVQNTFYDIVAELGAMEHAQAVDYIKKLMTKGRYSLDVWS",μM of reduced MTT/min/mg of protein (Relative Rates),[1],1
same,pmoles of CYP2D6/mg of total protein (Relative Amounts),CYP2D6,1
same,pmoles of CYP1A2/mg of total protein (Relative Amounts),CYP1A2,1
